This is an account of results in article doi:10.1101/2025.09.10.675378 (bioRxiv, 2025).

This data set deals with the molecule itself. Kind of data set: native MS.

B1: hDVL3 PDZ-IDR2-DEP (aa 243-496) (domain or fragment)
chain: MSLNIITVTLNMEKYNFLGISIVGQSNERGDGGIYIGSIMKGGAVAADGRIEPGDMLLQVNEINFENMSNDDAVRVLREIVHKPGPITLTVAKCWDPSPRGCFTLPRSEPIRPIDPAAWVSHTAAMTGTFPAYGMSPSLSTITSTSSSITSSIPDTERLDDFHLSIHSDMAAIVKAMASPESGLEVRDRMWLKITIPNAFIGSDVVDWLYHNVEGFTDRREARKYASNLLKAGFIRHTVNKITFSEQCYYIFGD
B1: the binding result is “binds”.

B2: phosphorylated hDVL3 PDZ-IDR2-DEP (PDZ-pIDR2-DEP, aa 243-496) (domain or fragment)
chain: MSLNIITVTLNMEKYNFLGISIVGQSNERGDGGIYIGSIMKGGAVAADGRIEPGDMLLQVNEINFENMSNDDAVRVLREIVHKPGPITLTVAKCWDPSPRGCFTLPRSEPIRPIDPAAWVSHTAAMTGTFPAYGMSPSLSTITSTSSSITSSIPDTERLDDFHLSIHSDMAAIVKAMASPESGLEVRDRMWLKITIPNAFIGSDVVDWLYHNVEGFTDRREARKYASNLLKAGFIRHTVNKITFSEQCYYIFGD
modifications: 8-19 phosphates on S/T residues of IDR2 (native ESI-MS), added by CK1ε
For B2, the binding result was “binds”.
